# Test results as given in patent US20240398911A1.
# Assays:
# [1] = target: myc-tagged full-length S of SARS-CoV-2 variant P.1 (Gamma) expressed on Expi293F cells (SARS-CoV-2 P.1 (Gamma))
# [2] = target: myc-tagged full-length S of SARS-CoV-2 variant B.1.351 (Beta) expressed on Expi293F cells (SARS-CoV-2 B.1.351 (Beta))
# [3] = target: myc-tagged full-length S of SARS-CoV-2 variant B.1.1.7 (Alpha) expressed on Expi293F cells (SARS-CoV-2 B.1.1.7 (Alpha))
Substance,EC50 (read off the curve) [1] [pM],EC50 (read off the curve) [2] [pM],EC50 (read off the curve) [3] [pM]
REGN10987 (imdevimab) (antibody),200,300,–
sACE22.v2.4 fused to human IgG1 Fc (Fc fusion),800,–,700
